From PMC12901311, “HEXIM1 inter-monomer autoinhibition governs 7SK RNA binding specificity and P-TEFb inactivation” (Nature Communications, 2024)

B1: 7SK SL1-p (structured_RNA)
RNA: GGAUGUGAGGGCGAUCUGGCUUCGGCCUUCCUCCCUCACCGCUCCA
B2: 7SK SL1-dI (structured_RNA)
RNA: GGCCAUUGAUCGCCUUCGGGCUGAUCUGGCC

Experiments:
Hexim1-deltaPYNT = Hexim1-deltaPYNT (human, UniProt O94992 1-201+206-359, internal_change); assay: ITC; ITC: 20 mM HEPES pH 7.5, 150 mM KCl, 1 mM TCEP, 295 K; NMR: 50 mM Na phosphate pH 6.2, 150 mM KCl, 0.02% NaN3, 5% D2O, 298 K; EMSA: binding buffer (20 mM HEPES); details: protein: recombinant; chain copies: 2; hairpin
Hexim1 NBLA-S158EE = Hexim1 NBLA-S158EE (human, UniProt O94992 1-157+=EE+159-253, internal_change); assay: ITC; N=0.74; ITC: 20 mM HEPES pH 7.5, 150 mM KCl, 1 mM TCEP, 295 K; NMR: 50 mM Na phosphate pH 6.2, 150 mM KCl, 0.02% NaN3, 5% D2O, 298 K; EMSA: binding buffer (20 mM HEPES); details: protein: recombinant; hairpin with U40U41 and U63 bulges
[1] = target: Hexim1 BR-L-AR(S183C-MTSL) (human, UniProt O94992 142-253, S183C); assay: NMR (PRE); 1:1.2 protein:RNA; intensity recovery outside BR; ITC: 20 mM HEPES pH 7.5, 150 mM KCl, 1 mM TCEP, 295 K; NMR: 50 mM Na phosphate pH 6.2, 150 mM KCl, 0.02% NaN3, 5% D2O, 298 K; EMSA: binding buffer (20 mM HEPES); details: protein: recombinant; tags: MBP-His6 removed by TEV; non-native N-terminal G; MTSL spin label at C183; hairpin with U40U41 and U63 bulges
Hexim1 BR-L-AR(S183C-MTSL), sequence (O94992 142-253 S183C): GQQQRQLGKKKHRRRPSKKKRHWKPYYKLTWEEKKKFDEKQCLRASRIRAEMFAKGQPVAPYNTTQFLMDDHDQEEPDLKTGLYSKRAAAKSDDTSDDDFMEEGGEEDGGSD

Hexim1-deltaPYNT, sequence (O94992 other isoform, or with tags, fused parts or gaps | mutant): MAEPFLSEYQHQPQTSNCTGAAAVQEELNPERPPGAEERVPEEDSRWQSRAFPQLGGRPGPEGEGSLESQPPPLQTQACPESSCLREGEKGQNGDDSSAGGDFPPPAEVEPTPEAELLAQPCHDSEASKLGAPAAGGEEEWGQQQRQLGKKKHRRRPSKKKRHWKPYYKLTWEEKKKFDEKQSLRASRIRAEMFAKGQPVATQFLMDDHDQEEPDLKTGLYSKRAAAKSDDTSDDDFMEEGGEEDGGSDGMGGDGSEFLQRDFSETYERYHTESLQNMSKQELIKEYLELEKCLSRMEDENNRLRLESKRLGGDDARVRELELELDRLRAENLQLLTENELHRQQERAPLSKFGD
Hexim1 NBLA-S158EE, sequence (O94992 other isoform, or with tags, fused parts or gaps): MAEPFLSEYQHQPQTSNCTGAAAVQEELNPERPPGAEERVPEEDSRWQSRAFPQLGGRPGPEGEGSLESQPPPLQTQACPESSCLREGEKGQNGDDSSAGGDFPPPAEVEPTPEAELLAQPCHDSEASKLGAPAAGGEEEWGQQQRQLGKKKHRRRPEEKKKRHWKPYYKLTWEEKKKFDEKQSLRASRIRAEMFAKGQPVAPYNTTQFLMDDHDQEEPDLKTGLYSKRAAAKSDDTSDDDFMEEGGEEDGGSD

| Binder | binding signal (Hexim1-deltaPYNT) | Kd (Hexim1 NBLA-S158EE) [nM] | binding result [1] |
| --- | --- | --- | --- |
| B1 | ~5 fold tighter than wild-type Hexim1 |  |  |
| B2 |  | 727 ± 63 | binds |
